The values that follow are results of earlier work, collected in PMC4798892.

pKd: −log10 of the molar value.

Broadly, the pKd is the negative decadic logarithm of the Kd, by convention in mol/L.

Data set [1] deals with Histone H3 (H3K9me3) (Homo sapiens) (UniProt P68431).
Data set [2] deals with Histone H3 (H3K9me3S10ph) (Homo sapiens) (UniProt P68431).
Data set [3] has as its target Histone H3 (H3K4me0) (Homo sapiens) (UniProt P68431).

ATRX ADD (from UniProt P46100): the pKd in data set [1] was 6.96; in data set [2], 6.72; in data set [3], 5.52.
